Source: publication PMC6265248

Biological target: C. reinhardtii Rubisco (CrRubisco), L8S8 holoenzyme (C. reinhardtii (endogenous in strain CC-2677)) (UniProt P00877)
Assay: co-sedimentation; droplet sedimentation assay of demixed (phase-separated) EPYC1-Rubisco droplets, with microscopy: 10 µl reactions, 10 min, 20 mM Tris-HCl pH 8.0, 50 mM NaCl, room temperature, 21,100 x g, SDS-PAGE and densitometry of pellet and supernatant

stoichiometry N (EPYC1:Rubisco): 1 to 4 | stoichiometry N (EPYC1 molecules per Rubisco holoenzyme): 2
Substance: Essential Pyrenoid Component 1 (EPYC1), residues 46-317 (natural protein)
